Results on one molecule are retold here after article PMC5012860, “Hemi-methylated DNA regulates DNA methylation inheritance through allosteric activation of H3 ubiquitylation by UHRF1” (eLife, 2016).

Assay [1] has as its target T1, His-MBP-tagged UHRF1 SRA-RING (amino acids 405-793) (human, UniProt Q96T88 405-793).
T1 construct: human UHRF1 SRA-RING, amino acids 405-793; also called MBP-SRA-RING; source: E. coli, purified as described for UHRF1
T1 sequence (looked up): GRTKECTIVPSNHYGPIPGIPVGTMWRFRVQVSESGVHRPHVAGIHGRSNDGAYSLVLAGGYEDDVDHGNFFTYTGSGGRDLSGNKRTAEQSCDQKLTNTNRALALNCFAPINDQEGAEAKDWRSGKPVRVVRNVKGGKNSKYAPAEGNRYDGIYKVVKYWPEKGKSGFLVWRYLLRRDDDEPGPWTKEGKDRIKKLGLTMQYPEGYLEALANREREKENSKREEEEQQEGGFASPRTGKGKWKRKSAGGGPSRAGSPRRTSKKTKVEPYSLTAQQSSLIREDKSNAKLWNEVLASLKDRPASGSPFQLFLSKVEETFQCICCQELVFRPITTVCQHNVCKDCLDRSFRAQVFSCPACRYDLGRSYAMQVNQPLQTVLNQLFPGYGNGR
Kind of assay: pull-down; proteins each at 1 uM incubated overnight at 4 C with MBP magnetic beads in 50 mM Tris-HCl pH 8.0, 100 mM NaCl, 0.1% NP-40, 0.5% BSA; blot with GST antibody; also done with 25 uM H3_(1-20)K9me2 peptide, which did not inhibit. The note with it: both partners purified.

The target in assay [2] is T2, MBP-SRA-RING DNA^mut (G448D) (human, UniProt Q96T88 405-793, G448D).
T2 construct: human UHRF1 SRA-RING, amino acids 405-793, with G448D (DNA^mut); source: E. coli, purified as described for UHRF1
T2 sequence (looked up): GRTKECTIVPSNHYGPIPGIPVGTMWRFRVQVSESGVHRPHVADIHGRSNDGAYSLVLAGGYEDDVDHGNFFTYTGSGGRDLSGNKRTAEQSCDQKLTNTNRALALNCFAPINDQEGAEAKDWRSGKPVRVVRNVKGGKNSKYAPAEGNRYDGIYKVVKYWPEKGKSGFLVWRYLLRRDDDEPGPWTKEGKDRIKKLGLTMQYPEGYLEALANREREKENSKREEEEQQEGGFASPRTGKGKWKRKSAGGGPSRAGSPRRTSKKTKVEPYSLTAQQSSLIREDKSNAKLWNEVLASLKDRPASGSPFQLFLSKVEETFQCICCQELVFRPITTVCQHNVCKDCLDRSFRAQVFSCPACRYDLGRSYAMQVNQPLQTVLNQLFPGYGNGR
Kind of assay: pull-down; as a2 with SRA-RING DNA^mut in the presence of 5 uM DNA. The note with it: both partners purified.

B1: GST-tagged UHRF1 TTD-PHD (amino acids 123-366) (domain or fragment, human, UniProt Q96T88 123-366, looked up)
chain: DEDMWDETELGLYKVNEYVDARDTNMGAWFEAQVVRVTRKAPSRDEPCSSTSRPALEEDVIYHVKYDDYPENGVVQMNSRDVRARARTIIKWQDLEVGQVVMLNYNPDNPKERGFWYDAEISRKRETRTARELYANVVLGDDSLNDCRIIFVDEVFKIERPGEGSPMVDNPMRRKSGPSCKHCKDDVNRLCRVCACHLCGGRQDPDKQLMCDECDMAFHIYCLDPPLSSVPSEDEWYCPECRND
notes: human UHRF1 linked tandem Tudor domain and plant homeodomain (TTD-PHD), amino acids 123-366; also called GST-TTD-PHD; source: produced as previously described (Rothbart et al., 2013)
Consider B1, for which the binding result in assay [1] and in assay [2] was “binds” throughout.
